Laboratory results from publication PMC4786692.

Assays:
[1] = target: Murine VEGF-A164 (mouse); assay: MSD (meso scale discovery) plate binding assay; VEGF ligand coated at 2 μg/ml on MSD high bind plate; anti-VEGF molecule added in 0.1% BSA/PBS, 2 h room temperature; detection with sulfo-TAG anti-human IgG (Fc-specific); n = 3
[2] = target: Human VEGF_(1–165) (human); assay: as above
[3] = target: Human VEGF-A121 (human); assay: as above
[4] = target: VEGF-165 (R&D Systems) (human); assay: MSD receptor binding inhibition assay; VEGFR1 coated at […]; anti-VEGF molecule added 10 min before VEGF-165 (10 ng/ml final); 2 h room temperature; bound VEGF detected with biotinylated anti-VEGF and streptavidin sulfo-TAG
[5] = target: VEGF-165 (R&D Systems) (human); assay: MSD receptor binding inhibition assay; VEGFR2 coated at […]; anti-VEGF molecule added 10 min before VEGF-165 (10 ng/ml final); 2 h room temperature; bound VEGF detected with biotinylated anti-VEGF and streptavidin sulfo-TAG
[6] = target: VEGF dual dAb in complex with human VEGF-165 (human); assay: SPR; ProteOn GLM chip; VEGF dual dAb alone or in complex with VEGF-165 immobilised by amine coupling; FcRn injected at 3.9-1000 nM; 25 °C, HBS-EP pH 6; equilibrium model
Sequence of VEGF dual dAb in complex with human VEGF-165 (human) (heavy, as listed by the source, chain 1 of 2): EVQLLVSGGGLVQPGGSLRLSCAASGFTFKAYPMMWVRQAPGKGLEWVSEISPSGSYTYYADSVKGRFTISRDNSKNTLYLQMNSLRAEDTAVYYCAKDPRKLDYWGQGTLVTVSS
Sequence of VEGF dual dAb in complex with human VEGF-165 (human) (light, as listed by the source, chain 2 of 2): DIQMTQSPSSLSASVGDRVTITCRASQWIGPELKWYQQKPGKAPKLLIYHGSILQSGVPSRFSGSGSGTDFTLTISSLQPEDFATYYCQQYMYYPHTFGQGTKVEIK

[7] = target: VEGF dual dAb (human); assay: as above
Sequence of VEGF dual dAb (human) (heavy, as listed by the source, chain 1 of 2): as the sequence (heavy, as listed by the source, chain 1 of 2) above
Sequence of VEGF dual dAb (human) (light, as listed by the source, chain 2 of 2): as the sequence (light, as listed by the source, chain 2 of 2) above

[8] = target: VEGF dual dAb (human); assay: SPR; Biacore T200, C1 chip; VEGF dual dAb captured on immobilised protein A (20 RU); VEGF injected at 0.03-32 nM (32 nM curves removed), 60 μl/min; 37 °C, HBS-EP; 1:1 model; triplicate
[9] = target: Human VEGF_(1–165) (human); assay: SEC-MALS; input proteins and complexes at input molar ratios 1:2, 2:1, 4:1 (dual dAb-VEGF) and 1:1, 1:2, 2:1, 4:1 (bevacizumab-VEGF); Superdex 200 column; PBS pH 7.4

Sequence of Aflibercept (Fc fusion) (chain): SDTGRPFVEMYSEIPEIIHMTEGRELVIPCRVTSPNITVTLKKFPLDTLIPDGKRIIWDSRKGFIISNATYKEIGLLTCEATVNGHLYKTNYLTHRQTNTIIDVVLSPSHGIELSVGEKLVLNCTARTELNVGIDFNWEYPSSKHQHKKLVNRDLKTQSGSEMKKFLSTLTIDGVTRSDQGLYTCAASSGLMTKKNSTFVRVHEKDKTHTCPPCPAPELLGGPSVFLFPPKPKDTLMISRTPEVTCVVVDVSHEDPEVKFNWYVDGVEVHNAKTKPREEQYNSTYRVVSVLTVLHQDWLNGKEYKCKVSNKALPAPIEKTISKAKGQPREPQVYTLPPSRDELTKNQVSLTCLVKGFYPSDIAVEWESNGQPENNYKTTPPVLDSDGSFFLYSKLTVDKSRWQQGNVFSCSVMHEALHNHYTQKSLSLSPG

Substance | Kd [8] [pM] | koff [8] [s⁻¹] | kon [8] [M⁻¹ s⁻¹] | also measured
Aflibercept (Fc fusion) | – | – | – | EC50 [1]: 95 pM; EC50 [2]: 86 pM; EC50 [3]: 317 pM; IC50 [4]: 75 pM; IC50 [5]: 32 pM
Human FcRn (from UniProt P55899 24-365; P61769 21-119) (receptor) | – | – | – | Kd [6]: 479000 pM; Kd [7]: 325000 pM
Murine VEGF-A164 (ligand) | 6.5 | 5.19e-05 | 8e+06 | –

More lines, main results first:

Kd [8] [pM] | koff [8] [s⁻¹] | kon [8] [M⁻¹ s⁻¹] | Substance | also measured
9.94 | 8.08e-05 | 8.13e+06 | Human VEGF-A165, E. coli expressed (ligand) | –
7.17 | 4.76e-05 | 6.63e+06 | Human VEGF_(1–165) (ligand) | stoichiometry N [9]: 2
